Data on two molecules can be found in patent US20240043558A1 (SHANGHAI HENLIUS BIOTECH, published 2024).

In assay [1] the target is recombinant human GPC3 protein (human) (UniProt P51654). The experiment in a line: ELISA on plate-coated human GPC3, OD 450 nm. (In general: ELISA stands for enzyme-linked immunosorbent assay.)
The target of assay [2] is GPC3 expressed endogenously on HepG2 and Hep3B human hepatoma cells (human) (UniProt P51654). As to the kind of experiment: flow cytometry on HepG2 cells (endogenous GPC3), MFI. Background: A flow cytometer gives signals particle by particle.
Sequence of GPC3 expressed endogenously on HepG2 and Hep3B human hepatoma cells (human) (P51654 other isoform, or with tags, fused parts or gaps limits assumed, form in doubt): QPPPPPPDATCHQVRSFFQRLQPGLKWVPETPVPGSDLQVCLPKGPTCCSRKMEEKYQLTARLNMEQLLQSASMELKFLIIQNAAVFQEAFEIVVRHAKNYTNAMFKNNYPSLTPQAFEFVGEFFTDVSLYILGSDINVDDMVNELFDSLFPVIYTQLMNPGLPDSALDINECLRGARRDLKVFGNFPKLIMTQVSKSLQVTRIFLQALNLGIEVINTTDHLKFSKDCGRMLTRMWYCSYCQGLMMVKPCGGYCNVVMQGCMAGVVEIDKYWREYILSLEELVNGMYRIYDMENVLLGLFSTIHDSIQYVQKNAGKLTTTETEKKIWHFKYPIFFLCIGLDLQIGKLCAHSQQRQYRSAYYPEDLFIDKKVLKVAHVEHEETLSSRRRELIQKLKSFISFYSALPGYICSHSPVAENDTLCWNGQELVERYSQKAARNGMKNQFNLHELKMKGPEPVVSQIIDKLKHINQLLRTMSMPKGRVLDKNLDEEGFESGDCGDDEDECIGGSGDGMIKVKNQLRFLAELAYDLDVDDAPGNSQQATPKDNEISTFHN
The target is the same in assay [3]. The experiment in a line: flow cytometry on Hep3B cells (endogenous GPC3), MFI.
For assay [4], the target named is T1, GPC3 expressed endogenously on HepG2 and Hep3B human hepatoma cells (human, UniProt P51654 25-554).
T1 construct: Endogenous GPC3 of human hepatoma lines; also called HepG2 cells; Hep3B cells
T1 sequence (P51654 other isoform, or with tags, fused parts or gaps limits assumed, form in doubt): as above
The experiment in a line: flow cytometry on HepG2 cells (endogenous GPC3), MFI.

Sequence of recombinant human GPC3 protein (human) (P51654 other isoform, or with tags, fused parts or gaps limits assumed, form in doubt): as above

In general, EC50 (read off the curve) refers to the concentration needed to bring the measured effect to its halfway point. As to HN3 VHH-Fc (Fc fusion), the figures for the EC50 (read off the curve) in assay [1], in assay [2] and in assay [3] were 0.02 µg/mL, 2 nM and 2 nM, respectively.

B1: 1B01 llama-human chimeric bivalent VHH-Fc (Fc fusion)
chain: QVQLQESGGGLVQAGGSLRLSCAAVGLPFSNYAMGWFRQAPGEEREFVSAVSANGGNEYYADSVKDRFTISRDNAKNTVYLRMLSLKLEDTAIYYCATVRRRGGTFTVGSYRGQGTQVTVSS
notes: expressed in ExpiCHO; also called Clone 1B01; 1B01 llama VHH fused to human IgG1 Fc; not shown: human IgG1 Fc fused to the C-terminal of the VHH
Turning to B1, the “EC50 (read off the curve)” value in assay [4] is ~0.3 nM.
